Results taken from article PMC9274004, “Deciphering the Molecular Interaction Between the Adhesion G Protein-Coupled Receptor ADGRV1 and its PDZ-Containing Regulator PDZD7” (Frontiers in Molecular Biosciences, 2022).
Values belong to the molecule of their own block, whether it stands above or below them.

Experiments:
[1] = test system: harmonin supramodule; conditions: for protocadherin-15; ref Michel et al., 2020; cited from earlier work
From the text: These folded extensions modulate the affinity of associated PDZ domains for their partners and promote the formation of domain assembly. In harmonin, this extension folds as a hairpin followed by a short α-helix mediating the formation of a heterotopic supramodule between the first PDZ and the upstream Harmonin Homology Domain (HHD) and forming direct contacts with residues upstream of the partner’s PBM ([Yan et al., 2010]) (PDB e ...

[2] = target: PDZD7 N-terminus with PDZ1 and its extension (N-PDZ1ext construct; M1-E192) (mouse) (UniProt E9Q9W7); assay: NMR titration; chemical shift perturbations of PDZ1ext or N-PDZ1ext with the whole ADGRV1 cytoplasmic domain or the PBM peptide; apparent Kd, mean over at least ten shifting peaks; buffer not given for these titrations
[3] = target: T1, PDZD7 first PDZ domain with its C-terminal extension (PDZ1ext construct; A81 to E192) (mouse); assay: as above
T1 sequence (E9Q9W7 81-192, looked up): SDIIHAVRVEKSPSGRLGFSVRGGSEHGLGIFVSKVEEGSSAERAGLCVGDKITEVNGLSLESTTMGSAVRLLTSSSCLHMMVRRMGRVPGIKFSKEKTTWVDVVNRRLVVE

[4] = target: T2, PDZD7 PDZ tandem (P1P2 construct; A81 to G313) (mouse); assay: other fluorescence titration; tryptophan fluorescence (excitation 295 nm) of P1P2 at 2 µM in Phosphate Buffer pH 6.6 (50 mM) on progressive addition of ADGRV1pbm peptide or the cytoplasmic domain; apparent Kd
T2 sequence (E9Q9W7 81-313, looked up): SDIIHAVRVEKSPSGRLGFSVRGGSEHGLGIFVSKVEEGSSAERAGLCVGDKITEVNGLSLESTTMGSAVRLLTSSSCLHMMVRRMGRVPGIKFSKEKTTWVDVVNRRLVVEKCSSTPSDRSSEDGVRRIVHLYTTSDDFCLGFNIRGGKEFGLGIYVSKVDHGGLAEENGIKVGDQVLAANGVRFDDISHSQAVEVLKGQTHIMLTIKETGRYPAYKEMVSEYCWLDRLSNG

[5] = target: T3, PDZD7 N-PDZ1ext (Mus musculus, UniProt E9Q9W7); assay: NMR titration of N-PDZ1ext with ADGRV1 ligands; format: binding, murine
T3 construct: including the N-terminus of the protein (N-PDZ1ext construct; M1-E192); GST (followed by TEV site) (N, cleaved yes); made in house; host or cells: E. coli BL21 DE3
T3 sequence (E9Q9W7 1-192): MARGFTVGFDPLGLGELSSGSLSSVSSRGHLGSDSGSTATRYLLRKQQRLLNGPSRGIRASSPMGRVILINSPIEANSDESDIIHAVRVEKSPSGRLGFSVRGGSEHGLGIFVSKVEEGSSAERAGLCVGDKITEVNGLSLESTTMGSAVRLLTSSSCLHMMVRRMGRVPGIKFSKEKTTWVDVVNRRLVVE
Procedure: (§1) All experiments were recorded at 25°C on a Bruker 800 MHz spectrometer equipped with a triple resonance ^1H{^13C/^15N} cryoprobe. The ^1H, ^15 N and ^13C backbone resonances assignment of PDZ1ext was carried out using 3D HNCA, HNCACB, HNCO, HNCOCA experiments (Tris HCl buffer adjusted to pH 6). The 2D ^1H-^15N HSQC spectra used to compare PDZ1, PDZ1ext, PDZ2 and PDZ2ext were recorded in Tris HCl pH 7.5 (50 mM). The 2D ^1H-^15N HSQC spectra used to compare PDZ1ext, PDZ2ext and P1P2 were recorded in Phosphate Buffer pH 6.5 (50 mM). Titration experiments of PDZ1 (WT), PDZ1ext (WT) and PDZ1ext (G103R) against ADGRV1pbm peptide were performed in Tris HCl pH 7.5 (50 mM). Averaged Chemical Shifts Perturbations (CSP) were calculated as: Δδavg = ((Δδ(^1H))^2+(Δδ(^15N)*0.159)^2)^½. For the determination of dissociation constants (Kd) of each peptide/PDZ interaction, averaged CSP δavg was plotted as a function of the molar ratio (peptide/PDZ) for several peaks and fitted using nonlinear regression and assuming a simple complex formation model.
The P1P2 tandem of PDZD7 is preceded by 80 residues with no predicted secondary or tertiary structure, but which could contribute to the interaction with ADGRV1. […] We first aimed at identifying potential secondary structures in both PDZD7 N-terminal region and ADGRV1 cytoplasmic domain. To this end, we produced both an extended PDZ1ext construct, including the N-terminus of the protein (N-PDZ1ext construct; M1-E192) and the whole ADGRV1 cytoplasmic domain of 152 residues.
On the overlay of PDZ1ext and N-PDZ1ext HSQC spectra, there is no significant chemical shift changes on PDZ1ext due to the presence of the N-terminal region (CSPs <0.04 ppm). […] We used the entire cytoplasmic domain of ADGRV1 as partner of PDZD7 in NMR and fluorescence titrations experiments. […] Finally, we measured Kd values in the few micromolar range between the tandem P1P2 and the whole cytoplasmic domain and the last 13 residues of ADGRV1 by fluorescence experiments.

[6] = target: T4, PDZD7 PDZ1ext (81-192) (Mus musculus, UniProt E9Q9W7); assay: NMR titration of PDZ1ext with ADGRV1 ligands; format: binding, murine; conditions: NMR titration, 25°C; apparent Kd, SD over at least ten shifting peaks; ligand whole cytoplasmic domain; read-out: Kd (Cyto)
T4 construct: PDZ1 (81-167), PDZ1ext (81-192); GST (followed by TEV site) (N, cleaved yes); made in house; host or cells: E. coli BL21 DE3
T4 sequence (E9Q9W7 81-192): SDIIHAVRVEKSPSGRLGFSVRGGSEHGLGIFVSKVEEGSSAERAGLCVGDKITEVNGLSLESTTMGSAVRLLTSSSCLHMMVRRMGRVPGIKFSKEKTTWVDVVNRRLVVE
Procedure: as §1, with “For the determination of dissociation constants (Kd) of each peptide/PDZ interaction, averaged CSP δavg was plotted as a function of the molar ratio (peptide/PDZ) for several peaks and fitted using nonlinear regression and assuming a simple complex formation model.” left out
We monitored the interaction between PDZD7 constructs and a peptide (ADGRV1pbm) corresponding to the last 13 residues of ADGRV1, encompassing its PBM (sequence VELRRIPIADTHL-COOH; PBM underlined). We measured apparent Kd values of our constructs towards ADGRV1pbm using several biophysical methods (NMR, fluorescence, MicroScale Thermophoresis (MST)) (Table 1; Supplementary Figure S3–S5). […]

[7] = target: PDZD7 PDZ1ext G103R (mouse); assay: NMR titration; 1H-15N HSQC chemical shift perturbations of the labelled PDZ construct on addition of ADGRV1pbm peptide; Tris HCl pH 7.5 (50 mM), 25°C; apparent Kd, mean over at least 10 shifting peaks
[8] = target: T1, PDZD7 first PDZ domain with its C-terminal extension (PDZ1ext construct; A81 to E192) (mouse); assay: as above
[9] = target: T5, PDZD7 first PDZ domain (PDZ1 construct; A81 to G167) (mouse, Natural entry residue kept at 81: the paper prints A81 but the entry has Ser, so the Ala is probably a cloning junction or a misprint. The GST tag was removed by TEV; a short N-terminal scar is possib); assay: as above; conditions: both partners purified
T5 chain: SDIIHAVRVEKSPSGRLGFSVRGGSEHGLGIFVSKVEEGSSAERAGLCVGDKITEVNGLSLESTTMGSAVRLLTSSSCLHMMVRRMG

[10] = target: T6, PDZD7 second PDZ domain (PDZ2 construct; G206 to G292) (mouse, UniProt E9Q9W7-1 206-292); assay: MST; label-free; PDZ2 at 140 μM in MES pH6 (50 mM) mixed 1:1 with a serial dilution of ADGRV1pbm peptide; apparent Kd; conditions: both partners purified
T6 construct: PDZD7, mouse, long isoform (Uniprot E9Q9W7-1), residues 206-292; source: E. coli BL21 DE3, purified (GSTrap, on-column TEV cleavage, SEC); not shown: GST, N-terminal, cleaved
T6 sequence (looked up): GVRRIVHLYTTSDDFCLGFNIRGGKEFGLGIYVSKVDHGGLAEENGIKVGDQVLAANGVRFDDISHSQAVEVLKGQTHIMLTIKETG

[11] = target: PDZD7 PDZ tandem P1P2 G103R (mouse); assay: other fluorescence titration; tryptophan fluorescence (excitation 295 nm) of P1P2 at 2 µM in Phosphate Buffer pH 6.6 (50 mM) on progressive addition of ADGRV1pbm peptide or the cytoplasmic domain; apparent Kd
[12] = target: T7, PDZD7 second PDZ domain with its C-terminal extension (PDZ2ext construct; G206 to G313) (mouse, UniProt E9Q9W7-1 206-313); assay: other fluorescence titration; tryptophan fluorescence (excitation 295 nm) of PDZ2ext at 5 µM in Tris HCl pH 7.5 (50 mM) on progressive addition of ADGRV1pbm peptide; apparent Kd; conditions: both partners purified
T7 construct: also called PDZ2ext WT; source: E. coli BL21 DE3, purified (GSTrap, on-column TEV cleavage, SEC); not shown: GST, N-terminal, cleaved
T7 sequence (looked up): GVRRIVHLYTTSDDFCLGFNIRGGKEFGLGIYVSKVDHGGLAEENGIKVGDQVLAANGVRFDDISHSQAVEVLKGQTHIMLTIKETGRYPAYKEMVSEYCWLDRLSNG

Molecule: protocadherin-15: partner of harmonin supramodule
increased affinity of harmonin supramodule vs isolated PDZ [1]: ~10 fold

Kd [2]: 241 µM
Kd [3]: 41 µM
Kd [4]: 8.1 µM
B1: ADGRV1 whole cytoplasmic domain (domain or fragment)
chain: HNQTCCPMKASYTVEMNGHPGPSTAFFTPGSGIPPAGEINKSTQNLINAMEEVPSDWERSSFQQTSQASPDLKTSPQNGASFPSSGGYGPGSLIADEESQEFDDLIFALKTGAGLSVSDNESGQGSQEGGTLTDSQIVELRRIPIADTHL

Kd ([5]; NMR titration, 25°C, SD over at least ten shifting peaks, ligand whole cytoplasmic domain, read-out: Kd (Cyto)): 241 ± 115 µM
decrease in affinity ([5]; due to the long unfolded N-terminus region, N-PDZ1ext vs PDZ1ext): 6 fold
Kd [6]: 41 ± 14 µM
B2: ADGRV1 whole cytoplasmic domain: whole ADGRV1 cytoplasmic domain of 152 residues, murine long isoform (CCDS36737; 6149-6298) (protein)
chain: HNQTCCPMKASYTVEMNGHPGPSTAFFTPGSGIPPAGEINKSTQNLINAMEEVPSDWERSSFQQTSQASPDLKTSPQNGASFPSSGGYGPGSLIADEESQEFDDLIFALKTGAGLSVSDNESGQGSQEGGTLTDSQIVELRRIPIADTHL
modifications: left off: Histidine tag, N-terminal, cleaved

Kd [7]: 1190 µM
Kd [8]: 47 µM
Kd [9]: 1310 µM
Kd [10]: 313 µM
Kd [11]: 1.9 µM
Kd [4]: 1.6 µM
Kd [12]: 3.1 µM
B3: ADGRV1pbm peptide (last 13 residues of ADGRV1, with its PDZ binding motif) (peptide)
peptide: VELRRIPIADTHL
notes: ADGRV1, last 13 residues, free C-terminal carboxylate as printed (-COOH); The other ADGRV1 constructs are murine
